Test results: US7132258 (UNIVERSITY OF MASSACHUSETTS, dated 2006)

T1: RAC3.1 (yeast two-hybrid clone, RAC3 amino acids 401-1204) as Gal4 AD fusion (human, UniProt Q9Y6Q9 401-1204)
T1 construct: Order of the fusion (Gal4 AD at the N-terminus) follows the vector; also called Gal4 AD fusion (RAC3.1)
T1 sequence: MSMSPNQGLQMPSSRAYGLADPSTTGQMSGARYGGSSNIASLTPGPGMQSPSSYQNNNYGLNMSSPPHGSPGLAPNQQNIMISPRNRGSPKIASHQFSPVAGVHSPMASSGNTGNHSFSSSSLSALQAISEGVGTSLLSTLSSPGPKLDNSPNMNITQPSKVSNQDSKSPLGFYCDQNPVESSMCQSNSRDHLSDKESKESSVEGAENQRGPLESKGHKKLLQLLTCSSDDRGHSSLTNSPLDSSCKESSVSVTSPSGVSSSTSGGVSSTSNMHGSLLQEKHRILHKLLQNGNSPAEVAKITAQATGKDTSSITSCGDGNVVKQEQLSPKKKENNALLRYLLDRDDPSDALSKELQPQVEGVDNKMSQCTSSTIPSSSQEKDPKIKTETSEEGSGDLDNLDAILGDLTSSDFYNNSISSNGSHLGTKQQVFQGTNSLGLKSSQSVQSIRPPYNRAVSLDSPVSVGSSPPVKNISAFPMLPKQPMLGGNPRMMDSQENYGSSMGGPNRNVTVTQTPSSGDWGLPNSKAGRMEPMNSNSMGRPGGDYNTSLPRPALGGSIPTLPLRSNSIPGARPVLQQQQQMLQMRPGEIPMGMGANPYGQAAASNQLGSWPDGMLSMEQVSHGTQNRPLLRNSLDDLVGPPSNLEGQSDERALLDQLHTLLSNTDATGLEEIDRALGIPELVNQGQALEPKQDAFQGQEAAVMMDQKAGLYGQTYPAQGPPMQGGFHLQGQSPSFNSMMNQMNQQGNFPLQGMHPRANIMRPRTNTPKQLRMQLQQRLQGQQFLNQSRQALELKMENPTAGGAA

T2: VP16 AD-full-length hRARα fusion (human, UniProt P10276 1-462)
T2 construct: mature; also called VP16-RAR
T2 sequence: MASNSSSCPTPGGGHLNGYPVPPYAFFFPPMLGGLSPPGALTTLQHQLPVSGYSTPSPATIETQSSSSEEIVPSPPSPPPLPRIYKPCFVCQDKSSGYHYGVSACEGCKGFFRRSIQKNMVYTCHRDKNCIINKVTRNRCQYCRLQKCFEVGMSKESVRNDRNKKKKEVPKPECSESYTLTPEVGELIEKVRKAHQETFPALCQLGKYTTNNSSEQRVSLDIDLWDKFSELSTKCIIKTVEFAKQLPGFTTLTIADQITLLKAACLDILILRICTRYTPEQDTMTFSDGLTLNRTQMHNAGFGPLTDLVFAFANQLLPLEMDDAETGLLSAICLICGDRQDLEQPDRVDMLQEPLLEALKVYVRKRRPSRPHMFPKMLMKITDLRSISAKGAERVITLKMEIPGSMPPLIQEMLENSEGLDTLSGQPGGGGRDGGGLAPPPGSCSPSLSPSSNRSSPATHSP

B1: Gal4 DBD fusion of full-length hRXRα (receptor, UniProt P04386 1-147, looked up)
chain: MKLLSSIEQACDICRLKKLKCSKEKPKCAKCLKNNWECRYSPKTKRSPLTRAHLTEVESRLERLEQLFLLIFPREDLDMILKMDSLQDIKALLTGLFVQDNVNKDAVTDRLASVETDMPLTLRQHRISATSSSEESSNKGQRQLTVSMDTKHFLPLDFSTQVNSSLTSPTGRGSMAAPSLHPSLGPGIGSPGQLHSPISTLSSPINGMGPPFSVISSPMGPHSMSVPTTPTLGFSTGSPQLSSPMNPVSSSEDIKPPLGLNGVLKVPAHPSGNMASFTKHICAICGDRSSGKHYGVYSCEGCKGFFKRTVRKDLTYTCRDNKDCLIDKRQRNRCQYCRYQKCLAMGMKREAVQEERQRGKDRNENEVESTSSANEDMPVERILEAELAVEPKTETYVEANMGLNPSSPNDPVTNICQAADKQLFTLVEWAKRIPHFSELPLDDQVILLRAGWNELLIASFSHRSIAVKDGILLATGLHVHRNSAHSAGVGAIFDRVLTELVSKMRDMQMDKTELGCLRAIVLFNPDSKGLSNPAEVEALREKVYASLEAYCKHKYPEQPGRFAKLLLRLPALRSIGLKCLEHLFFFKLIGDTPIDTFLMEMLEAPHQMT
notes: domain: Gal4 DBD;mature
B2: GST-RAC3-RID fusion (other)
chain: LESKGHKKLLQLLTCSSDDRGHSSLTNSPLDSSCKESSVSVTSPSGVSSSTSGGVSSTSNMHGSLLQEKHRILHKLLQNGNSPAEVAKITAQATGKDTSSITSCGDGNVVKQEQLSPKKKENNALLRYLLDRDDPSDALS
notes: Purified from DH5α cells, separated by SDS-PAGE, blotted, denatured and renatured on the filter; also called GST-RID fusion; not shown: glutathione S-transferase (GST) module
B3: SNF1 (other, UniProt P06782 1-633, looked up)
chain: MSSNNNTNTAPANANSSHHHHHHHHHHHHHGHGGSNSTLNNPKSSLADGAHIGNYQIVKTLGEGSFGKVKLAYHTTTGQKVALKIINKKVLAKSDMQGRIEREISYLRLLRHPHIIKLYDVIKSKDEIIMVIEYAGNELFDYIVQRDKMSEQEARRFFQQIISAVEYCHRHKIVHRDLKPENLLLDEHLNVKIADFGLSNIMTDGNFLKTSCGSPNYAAPEVISGKLYAGPEVDVWSCGVILYVMLCRRLPFDDESIPVLFKNISNGVYTLPKFLSPGAAGLIKRMLIVNPLNRISIHEIMQDDWFKVDLPEYLLPPDLKPHPEEENENNDSKKDGSSPDNDEIDDNLVNILSSTMGYEKDEIYESLESSEDTPAFNEIRDAYMLIKENKSLIKDMKANKSVSDELDTFLSQSPPTFQQQSKSHQKSQVDHETAKQHARRMASAITQQRTYHQSPFMDQYKEEDSTVSILPTSLPQIHRANMLAQGSPAASKISPLVTKKSKTRWHFGIRSRSYPLDVMGEIYIALKNLGAEWAKPSEEDLWTIKLRWKYDIGNKTNTNEKIPDLMKMVIQLFQIETNNYLVDFKFDGWESSYGDDTTVSNISEDEMSTFSAYPFLHLTTKLIMELAVNSQSN
B4: 35S-labeled hRARα (in vitro translated) (receptor, human, UniProt P10276 1-462, looked up)
chain: T2 sequence
notes: Made in reticulocyte lysate; also called 35S-RAR
B5: RAC3 amino acids 401-624 as GAL4 DBD fusion (pCMX-Gal) (other)
chain: MKLLSSIEQACDICRLKKLKCSKEKPKCAKCLKNNWECRYSPKTKRSPLTRAHLTEVESRLERLEQLFLLIFPREDLDMILKMDSLQDIKALLTGLFVQDNVNKDAVTDRLASVETDMPLTLRQHRISATSSSEESSNKGQRQLTVSMSMSPNQGLQMPSSRAYGLADPSTTGQMSGARYGGSSNIASLTPGPGMQSPSSYQNNNYGLNMSSPPHGSPGLAPNQQNIMISPRNRGSPKIASHQFSPVAGVHSPMASSGNTGNHSFSSSSLSALQAISEGVGTSLLSTLSSPGPKLDNSPNMNITQPSKVSNQDSKSPLGFYCDQNPVESSMCQSNSRDHLSDKESKESSVEGAENQRGPLESKGHKKLLQL
notes: domain: GAL4 DBD
B6: RAC3 amino acids 401-695 as GAL4 DBD fusion (pCMX-Gal) (other)
chain: MKLLSSIEQACDICRLKKLKCSKEKPKCAKCLKNNWECRYSPKTKRSPLTRAHLTEVESRLERLEQLFLLIFPREDLDMILKMDSLQDIKALLTGLFVQDNVNKDAVTDRLASVETDMPLTLRQHRISATSSSEESSNKGQRQLTVSMSMSPNQGLQMPSSRAYGLADPSTTGQMSGARYGGSSNIASLTPGPGMQSPSSYQNNNYGLNMSSPPHGSPGLAPNQQNIMISPRNRGSPKIASHQFSPVAGVHSPMASSGNTGNHSFSSSSLSALQAISEGVGTSLLSTLSSPGPKLDNSPNMNITQPSKVSNQDSKSPLGFYCDQNPVESSMCQSNSRDHLSDKESKESSVEGAENQRGPLESKGHKKLLQLLTCSSDDRGHSSLTNSPLDSSCKESSVSVTSPSGVSSSTSGGVSSTSNMHGSLLQEKHRILHKLLQNGNSP
notes: domain: GAL4 DBD
B7: Gal4 DBD fusion of full-length human RARα (receptor, UniProt P04386 1-147, looked up)
chain: MKLLSSIEQACDICRLKKLKCSKEKPKCAKCLKNNWECRYSPKTKRSPLTRAHLTEVESRLERLEQLFLLIFPREDLDMILKMDSLQDIKALLTGLFVQDNVNKDAVTDRLASVETDMPLTLRQHRISATSSSEESSNKGQRQLTVSMASNSSSCPTPGGGHLNGYPVPPYAFFFPPMLGGLSPPGALTTLQHQLPVSGYSTPSPATIETQSSSSEEIVPSPPSPPPLPRIYKPCFVCQDKSSGYHYGVSACEGCKGFFRRSIQKNMVYTCHRDKNCIINKVTRNRCQYCRLQKCFEVGMSKESVRNDRNKKKKEVPKPECSESYTLTPEVGELIEKVRKAHQETFPALCQLGKYTTNNSSEQRVSLDIDLWDKFSELSTKCIIKTVEFAKQLPGFTTLTIADQITLLKAACLDILILRICTRYTPEQDTMTFSDGLTLNRTQMHNAGFGPLTDLVFAFANQLLPLEMDDAETGLLSAICLICGDRQDLEQPDRVDMLQEPLLEALKVYVRKRRPSRPHMFPKMLMKITDLRSISAKGAERVITLKMEIPGSMPPLIQEMLENSEGLDTLSGQPGGGGRDGGGLAPPPGSCSPSLSPSSNRSSPATHSP
notes: domain: Gal4 DBD;mature; also called full-length hRARα; pGBT-hRARα
B8: VDR364* (LBD of hVDR truncated at amino acid 364) as Gal4 DBD fusion (receptor, UniProt P04386 1-147, looked up)
chain: MKLLSSIEQACDICRLKKLKCSKEKPKCAKCLKNNWECRYSPKTKRSPLTRAHLTEVESRLERLEQLFLLIFPREDLDMILKMDSLQDIKALLTGLFVQDNVNKDAVTDRLASVETDMPLTLRQHRISATSSSEESSNKGQRQLTVSMKEFILTDEEVQRKREMILKRKEEEALKDSLRPKLSEEQQRIIAILLDAHHKTYDPTYSDFCQFRPPVRVNDGGGSHPSRPNSRHTPSFSGDSSSSCSDHCITSSDMMDSSSFSNLDLSEEDSDDPSVTLELSQLSMLPHLADLVSYSIQKVIGFAKMIPGFRDLTSEDQIVLLKSSAIEVIMLRSNESFTMDDMSWTCGNQDYKYRVSDVTKAGHSLELIEPLIKFQVGLKKLNLHEEEHVLLMAICIVSPDRPGVQDAALIEAIQDRLSNTLQ
notes: domain: Gal4 DBD;domain: LBD of hVDR truncated at amino acid 364

What was measured:
[1] = target: T1, RAC3.1 (yeast two-hybrid clone, RAC3 …); assay: yeast two-hybrid, β-galactosidase ONPG assay, 1 µM ligand
[2] = target: B4; assay: far-Western, GST-RAC3-RID on the filter, 35S-labeled receptor, 1 µM all-trans retinoic acid
[3] = target: T1, RAC3.1 (yeast two-hybrid clone, RAC3 …); assay: yeast two-hybrid, β-galactosidase liquid ONPG assay
[4] = target: T3, full-length RAC3 (in vitro translated, 35S-labeled or unlabeled) (human, UniProt Q9Y6Q9 2-1424); assay: trimeric far-Western: unlabeled full-length RAC3 held on CBP fragments C and D, then 35S-labeled RAR, with ligand
T3 construct: Made in reticulocyte lysate; also called 35S-RAC3
T3 sequence (Q9Y6Q9 other isoform, or with tags, fused parts or gaps limits assumed): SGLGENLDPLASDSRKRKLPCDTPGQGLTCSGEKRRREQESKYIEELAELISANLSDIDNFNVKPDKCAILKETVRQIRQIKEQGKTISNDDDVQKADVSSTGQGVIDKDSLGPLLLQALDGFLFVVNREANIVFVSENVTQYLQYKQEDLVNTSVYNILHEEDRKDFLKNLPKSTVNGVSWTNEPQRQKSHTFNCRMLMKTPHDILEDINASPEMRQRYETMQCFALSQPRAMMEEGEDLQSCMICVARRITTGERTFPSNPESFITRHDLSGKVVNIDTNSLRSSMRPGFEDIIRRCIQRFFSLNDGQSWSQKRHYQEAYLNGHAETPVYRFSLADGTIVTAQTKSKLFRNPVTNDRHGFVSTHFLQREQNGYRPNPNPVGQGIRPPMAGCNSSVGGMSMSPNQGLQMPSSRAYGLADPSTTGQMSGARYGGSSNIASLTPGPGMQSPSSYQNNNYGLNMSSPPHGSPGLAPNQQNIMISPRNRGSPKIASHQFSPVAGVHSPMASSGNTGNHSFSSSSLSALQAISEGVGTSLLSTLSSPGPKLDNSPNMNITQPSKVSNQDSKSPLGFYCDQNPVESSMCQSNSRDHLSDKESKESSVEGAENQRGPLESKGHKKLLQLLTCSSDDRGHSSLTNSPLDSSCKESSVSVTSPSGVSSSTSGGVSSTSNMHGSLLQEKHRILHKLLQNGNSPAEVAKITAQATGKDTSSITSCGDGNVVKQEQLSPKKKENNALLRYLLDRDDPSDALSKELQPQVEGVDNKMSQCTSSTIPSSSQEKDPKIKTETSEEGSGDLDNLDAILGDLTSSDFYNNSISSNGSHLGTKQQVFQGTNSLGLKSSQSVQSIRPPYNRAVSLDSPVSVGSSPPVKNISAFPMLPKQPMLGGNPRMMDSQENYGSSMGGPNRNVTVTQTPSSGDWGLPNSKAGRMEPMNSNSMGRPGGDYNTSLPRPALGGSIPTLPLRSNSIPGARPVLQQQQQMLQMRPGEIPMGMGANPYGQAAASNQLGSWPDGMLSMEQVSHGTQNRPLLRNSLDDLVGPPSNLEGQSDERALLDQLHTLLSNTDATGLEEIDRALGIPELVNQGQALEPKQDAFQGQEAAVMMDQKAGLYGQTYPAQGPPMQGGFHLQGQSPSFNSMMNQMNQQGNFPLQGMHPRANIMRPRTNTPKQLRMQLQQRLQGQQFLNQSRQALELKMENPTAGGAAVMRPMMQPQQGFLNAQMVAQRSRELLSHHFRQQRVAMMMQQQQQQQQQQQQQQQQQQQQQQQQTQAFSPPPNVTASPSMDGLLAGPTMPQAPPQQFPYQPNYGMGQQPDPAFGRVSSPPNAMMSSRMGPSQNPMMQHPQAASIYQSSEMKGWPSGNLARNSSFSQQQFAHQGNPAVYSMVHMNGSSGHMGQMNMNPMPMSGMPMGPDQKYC

[5] = target: T2, VP16 AD-full-length hRARα fusion; assay: mammalian two-hybrid, luciferase reporter, with or without 1 µM atRA
[6] = target: T1, RAC3.1 (yeast two-hybrid clone, RAC3 …); assay: yeast two-hybrid screen for RAR-interacting proteins, Gal4 DBD-full-length hRARα as bait, HIS3 and LacZ reporters
[7] = target: T1, RAC3.1 (yeast two-hybrid clone, RAC3 …); assay: yeast two-hybrid, with or without 1 µM ligand

Question: Does B1 bind [1]?
Answer: binds

Question: Does B2 bind [2]?
Answer: binds

Question: Does B3 bind [3]?
Answer: no binding

Question: Does B4 bind [4]?
Answer: binds

Question: Does B5 bind [5]?
Answer: no binding

Question: Does B6 bind [5]?
Answer: no binding

Question: Does B7 bind [6]?
Answer: binds

Question: Does B8 bind [7]?
Answer: no binding
